This note sets out measurements from the nanobody polyreactivity screen of Harvey et al. (2022).

The series can be described thus: yeast display, Sf9 membrane polyspecificity reagent, FACS + sequencing; frameworks hold sequencing errors. The procedure, abridged: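 A nanobody's polyreactivity label depends on the gate it was sorted from. Yeast display cells were stained with 10% biotinylated, detergent-solubilized Sf9 membrane reagent for 1 hour at 4 °C, enriched on streptavidin microbeads and sorted by FACS. The low and high (top ~1%) gates were set on anti-HA fluorescence for expression and streptavidin fluorescence for reagent binding.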
Regarding “QVQLVESGGGLGQAGGSLRLSCAASGRTLGAYAMGWYRQAPGKERELVAAISGSGGSTYYADSVKGRFTISRDNAKNTVYLQMNSLKPEDTAVYYCAAVLSRYGQSISMYYWGQGTQVTVSS”, the “polyreactivity (PSR sort gate)” value is “high polyreactivity”.

With “QVQLVESGGGLGQAGGSLRLSCAASGSIFGYNVMGWYRQAPGKERELVAGITSGGSTNYADSVKGRFTISRDNAKNTVSLQMNSLKPEDTAVYYCNAEGVFGDGRSGFYWYDYWGEGTQVTVSS”, the “polyreactivity (PSR sort gate)” value is listed as “low polyreactivity”.

Consider “QVQLVESGGGLGQAGGSLRLSCAASGSIFSFYAMGWYRQAPGKERELVAVINTDGDNTYYADSVKGRFTISRDNAKNTVYLQMNSLKAEDSAVYYCAASVSSYSYTRGGYWGQGTQVTVSS”, for which the “polyreactivity (PSR sort gate)” value was “high polyreactivity”.

In the case of “QVQLVESGGGLGQAGGSLRLSCAASGSIFYYYAMGWYRQAPGKERELVAGINSGDSTYYADSVKGRFTISRDNAKNTVYLQMNRLKPEDTAVYYCAASADGWYEYWGQGTQVTVSS”, the “polyreactivity (PSR sort gate)” value is on record as “low polyreactivity”.

Take “QVQLVESGGGLGQAGGSLRLSCAASGSLITQNALGWYRLAPGKEWELVADISRGSTYSADSVKGRFTISRDNAKNTVYLQLTSLKPEDTALYYSAADDIAHPSFVSTVDVGMDYWGQGPQVTVSS”: the “polyreactivity (PSR sort gate)” value is listed as “low polyreactivity”.

With “QVQLVESGGGLGQAGGSLRSSCAASGSIICYYAMGWYRQAPGKEWELVATITSGGSTSYADSVKGRFTISRDNAKNTVHLQMNSLKPEDTAVYYCAARNVTKSTYNYWGQGTQVTVSS”, the “polyreactivity (PSR sort gate)” value is “low polyreactivity”.

With “QVQLVESGGGLGQARGSLRLSRAASGSPFEYNAMGWYRPAPGKERELVASSTNYADSVKGRFTISRDNAKNTVYLQMNSLKPEVTAVNSCAREPGVNRNHDYWGQGSQVTVSS”, the “polyreactivity (PSR sort gate)” value was “low polyreactivity”.

For the sequence “QVQLVESGGGLGQSGGSLRLSCAATGSTYKYNAMGWNRTAPGKERELVPAISRGGRTNYADSVKGRFTISRDNAKNTVYFQMNILKPEDTAVYYCAKDVAGLFHVGSLYYYWGQGTQVNVSS”, the “polyreactivity (PSR sort gate)” value is “low polyreactivity”.

As for “QVQLVESGGGLIQAGGSLRLSCAASGSTFANNAMGWYRQAPGKERELVASITRSGSTYYADSVKGRFTISRDNAKNTVYLQMNSLKPEDTAVYYCAADSRRYGVRFDYWGQGTQVTVSS”, the “polyreactivity (PSR sort gate)” value is reported as “low polyreactivity”.

Consider “QVQLVESGGGLLLAGGSLRLSCAASGYTFVYNAMGWYRHAPGKEREFVAAITWSGTSTRYADSVKGRFTISRDNAKNNVYLQMKSLKPEDTAVYYCAARRRSAQSGSYNHWGQGTQVTVSS”, for which the “polyreactivity (PSR sort gate)” value is “high polyreactivity”.

Consider “QVQLVESGGGLLQAGGSHRLSCAASGRIFPAYAMGWYRQAPGKERELVASNRRGGITYADSVKGRFTISRDNAKNTVYLQMNSLKPEDTAVYYCNADYRGWGYHMDYWGQGTQVTVSS”, for which the “polyreactivity (PSR sort gate)” value was “low polyreactivity”.

Turning to “QVQLVESGGGLLQAGGSLLLSCAASGSNFAYYAMGWYRQAPGKERELVAAITRGAGRTFYADSVKGRFTISRDNAKNTVYLQMNSLKQEDTAVYYCAADVSGSKYDYWGQGTQVTVSS”, the “polyreactivity (PSR sort gate)” value is on record as “high polyreactivity”.

Regarding “QVQLVESGGGLLQAGGSLRISCAASGFPYVMGWYRQAPGKARELVATITSGDSTNYADSVKGRFTISRDNAKNTVYLQMNSLKPEDTAVYYCNARYWGRYYKRVRYDYWGQGTKVTVSS”, the “polyreactivity (PSR sort gate)” value is given as “high polyreactivity”.

Regarding “QVQLVESGGGLLQAGGSLRLISAASGGIFIRYAMGWYRQAPGKERALVAAITQSGAGTNYADSVKGRFTISRDNAKNTVYLQKYSLKPEDTAVYYCAKEALLPIRRLTHARTRYNFWGQGTQVTVSS”, the “polyreactivity (PSR sort gate)” value is given as “low polyreactivity”.

“QVQLVESGGGLLQAGGSLRLSCAASGFIFADYMGWNRQAPGKERELVASISSTGSSTYADSVKGRFTISRDNPKNTVYLQMNSLKPEDTAVSYCAATGVWYSWYEYASEYDYWGLGTQVTVSS”: the “polyreactivity (PSR sort gate)” value is “high polyreactivity”.

Turning to “QVQLVESGGGLLQAGGSLRLSCAASGFIFIQYAMGWYRQAPGKEREFVAAITGRGSSTYYADSVKGRFTISRDNAKNTVYLQMNSLKPEDTAVFYCAADRDSYIFYYYWSYDYWGQGTQVTVSA”, the “polyreactivity (PSR sort gate)” value was “high polyreactivity”.

For the sequence “QVQLVESGGGLLQAGGSLRLSCAASGFTFGGNAMGWYRQAPGKERELVAAITSRGGSTYYADSVKGRFTISRDNAKNTFYLQMYSLKPEDTAVYYCAAQFTTRYDWGQGTQVTVSS”, the “polyreactivity (PSR sort gate)” value was “high polyreactivity”.

On to “QVQLVESGGGLLQAGGSLRLSCAASGFTFRVNAMGWYRQAPGKERELVASITVSDARTYYADSVKGRFTISRDNAKNTVYLQMNSLKPEDTAVYYCAADYKGAFTTDWSSEYEYWGQGTQVTVSS”, for which the “polyreactivity (PSR sort gate)” value was “low polyreactivity”.

Take “QVQLVESGGGLLQAGGSLRLSCAASGFTFSTNAMGWYRQAPGKERDLVAAITWRGGSTYYADSVKGRFTISRDIAKKTVYVQLNSLKPEDTAVYYCAGRSRGSHVSYYKKFDYWGQGTHVTVSS”: the “polyreactivity (PSR sort gate)” value was “low polyreactivity”.

With “QVQLVESGGGLLQAGGSLRLSCAASGFTVYRYAMGWYRPEPGKERELGAAITWSGGSTYYADSVKGRFTISRDNAKKSVYFQMNSLKPEDTAVYYCAKETAPSRLPYGYWGQGTQVNVSS”, the “polyreactivity (PSR sort gate)” value is recorded as “low polyreactivity”.

Take “QVQLVESGGGLLQAGGSLRLSCAASGHTLYRYARGWYRQAPGKERELVAAITSRGGSTFYADSVKGRFTISRDTAKNSVYLQMNRLQPEDTAVYYCNTARGTAPAHDYWGQGTQVTVSS”: the “polyreactivity (PSR sort gate)” value is “low polyreactivity”.

“QVQLVESGGGLLQAGGSLRLSCAASGITFERNGMGWYRQAPGKERELVAAIRSGGSTYYADSVKGRFTISRDNAKNTVYLQMNTLKPEDTGVYYCAAVTQGGYTYLGDYWGQGTQVTVSS”: the “polyreactivity (PSR sort gate)” value is given as “low polyreactivity”.

For the sequence “QVQLVESGGGLLQAGGSLRLSCAASGITFVKYTMGWYRQAPGKERELVAAISRSDGRTYYADSVKGRFTISRDNAKNTVYLQMNSLQPEDTEVYYCNAVYGVIGKGYNYWGQGTQVTVSS”, the “polyreactivity (PSR sort gate)” value was “high polyreactivity”.

Regarding “QVQLVESGGGLLQAGGSLRLSCAASGITFYYNTMGWYRQAPGKERELVASISGGCSTYYADSVKGRFTISRDNAKNTVFLQMKSLIPEDTAVYYCNAQGSLFRGWFDYDYWGQGTQVTVSS”, the “polyreactivity (PSR sort gate)” value is listed as “low polyreactivity”.

Take “QVQLVESGGGLLQAGGSLRLSCAASGRICRYYAMGGYRQAPGKERELVAGIRTSGGRTYADSVKGRFTISRDYAKNTVYLQMNSLKPEDTAVYYCAAGRRTLSMYYWGQGTQVTVSS”: the “polyreactivity (PSR sort gate)” value is recorded as “high polyreactivity”.

Consider “QVQLVESGGGLLQAGGSLRLSCAASGRIFNINAMGWYRQAPGKERELVAAISSGDSTYYADSVKGRFTISRDNAKNTVYLQMNSLKPEDSAVDYCNKDLYIWGHGTQVTVSS”, for which the “polyreactivity (PSR sort gate)” value is on record as “low polyreactivity”.

“QVQLVESGGGLLQAGGSLRLSCAASGRIFYGYTMVRYRQAPGKERELVASITIRGSRTYYADSVKGRFTISRDNAKNTVYLQMISQKPEDTAVSYCAADFVPARTVHRYDYWGQGTQVTVSS”: the “polyreactivity (PSR sort gate)” value is on record as “low polyreactivity”.

With “QVQLVESGGGLLQAGGSLRLSCAASGRIKDNGMGWYIKAPGKERELVAAITLSAGRTYYADSVKGRFTISRDNAKNTVYLQMNSLKPEDTAVYYCAAQAERYGYEYWGQGTQVTVSS”, the “polyreactivity (PSR sort gate)” value is listed as “low polyreactivity”.

With “QVQLVESGGGLLQAGGSLRLSCAASGRILFSYAMGWYRQAPGKERELVATISSGGRTNYADSVKGRFTISRDNAKNTVYLQMNSLKPEDTAVYYCNTEYLVWYAYDYGGQGTQVTVSS”, the “polyreactivity (PSR sort gate)” value is “low polyreactivity”.

“QVQLVESGGGLLQAGGSLRLSCAASGRIYWNDMAWYRQAPGKERELVAAISWGGDRTYYADSVKGRFTISRDNAKNTVYLQMNSLKPEDTAVYYCNAPGYLTYDHSYDYWGQGTQVTVSS”: the “polyreactivity (PSR sort gate)” value is recorded as “low polyreactivity”.
